The target of assay [1] is T1, purified recombinant extracellular domain of c‐Met (from Met1 to Thr932), c‐Met‐his (human, UniProt P08581 25-932).
T1 construct: signal peptide in the construct; c-Met (hepatocyte growth factor receptor), extracellular domain, Met1 to Thr932; The limits and supplier are told for the SPR; source: bought: Sino Biological (Beijing, China)
Briefly: SPR; Biacore T200; c‐Met‐his immobilised on CM5 chip (10 mM sodium acetate pH 4.5); B7‐H3‐his as analyte in serial doubling concentrations up to 100 µM; 30 µL/min, 25°C; 1:1 model, global fit. The conditions noted are these: both partners purified. A general note: SPR reads the build-up and loss of mass on a sensor chip optically.

The target of assay [2] is T2, purified recombinant extracellular domain of c‐Met (from Met1 to Thr932), c‐Met‐his (human, UniProt P08581 25-932).
T2 chain: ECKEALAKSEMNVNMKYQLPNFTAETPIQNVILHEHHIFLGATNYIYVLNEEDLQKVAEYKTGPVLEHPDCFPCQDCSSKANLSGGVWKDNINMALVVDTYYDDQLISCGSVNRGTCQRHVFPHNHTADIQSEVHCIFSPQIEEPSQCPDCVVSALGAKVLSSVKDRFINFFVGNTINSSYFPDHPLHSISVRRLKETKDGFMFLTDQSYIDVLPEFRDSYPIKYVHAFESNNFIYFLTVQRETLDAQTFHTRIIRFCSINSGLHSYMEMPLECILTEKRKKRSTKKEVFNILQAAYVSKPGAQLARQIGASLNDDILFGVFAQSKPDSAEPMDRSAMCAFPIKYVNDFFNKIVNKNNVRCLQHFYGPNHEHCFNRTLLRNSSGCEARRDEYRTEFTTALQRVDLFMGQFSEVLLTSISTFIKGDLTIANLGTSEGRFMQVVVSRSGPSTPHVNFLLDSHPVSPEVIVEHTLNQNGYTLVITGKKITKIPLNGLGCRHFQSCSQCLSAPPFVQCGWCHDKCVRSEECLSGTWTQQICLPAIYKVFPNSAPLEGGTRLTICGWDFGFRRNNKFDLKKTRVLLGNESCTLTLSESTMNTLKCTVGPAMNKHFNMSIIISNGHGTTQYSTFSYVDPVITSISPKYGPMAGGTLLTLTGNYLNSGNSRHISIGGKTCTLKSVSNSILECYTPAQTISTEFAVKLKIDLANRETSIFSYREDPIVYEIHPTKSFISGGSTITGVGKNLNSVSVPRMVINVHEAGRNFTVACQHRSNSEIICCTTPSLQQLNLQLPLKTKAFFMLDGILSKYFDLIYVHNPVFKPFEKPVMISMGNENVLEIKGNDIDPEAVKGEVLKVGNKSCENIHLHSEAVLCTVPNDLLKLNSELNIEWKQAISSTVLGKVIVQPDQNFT
Briefly: SPR.

Among the data in PMC12371199, “Identification of c‐Met on Tumor Cells as a Novel Receptor for B7‐H3 Entails Implications for Cancer Cell Stemness and Targeted Therapy” (MedComm, 2025) are Kd and koff values, retold here.

As a reminder, the Kd is a measure of binding affinity in units of concentration. A word on the koff: it is a measure of how fast the partners let go of each other.

B1: purified recombinant extracellular domain of B7‐H3 (from Gly27 to Thr461), B7‐H3‐his (domain or fragment, human, UniProt Q5ZPR3 27-461, looked up)
chain: GALEVQVPEDPVVALVGTDATLCCSFSPEPGFSLAQLNLIWQLTDTKQLVHSFAEGQDQGSAYANRTALFPDLLAQGNASLRLQRVRVADEGSFTCFVSIRDFGSAAVSLQVAAPYSKPSMTLEPNKDLRPGDTVTITCSSYQGYPEAEVFWQDGQGVPLTGNVTTSQMANEQGLFDVHSILRVVLGANGTYSCLVRNPVLQQDAHSSVTITPQRSPTGAVEVQVPEDPVVALVGTDATLRCSFSPEPGFSLAQLNLIWQLTDTKQLVHSFTEGRDQGSAYANRTALFPDLLAQGNASLRLQRVRVADEGSFTCFVSIRDFGSAAVSLQVAAPYSKPSMTLEPNKDLRPGDTVTITCSSYRGYPEAEVFWQDGQGVPLTGNVTTSQMANEQGLFDVHSVLRVVLGANGTYSCLVRNPVLQQDAHGSVTITGQPMT
notes: B7-H3 (CD276), human, extracellular domain, Gly27 to Thr461; The limits and supplier are told for the SPR; also called soluble recombinant B7‐H3; source: bought: BioIntron (Taizhou, China)
On to B1, for which the Kd in assay [1] came to 1660 nM. For the same molecule, the dissociation rate constant (koff) in assay [2] is 0.000707 s⁻¹.
